The values below come from the Immune Epitope Database (IEDB).

For assay [1], the target named is HLA-A*02:01. In words: IEDB peptide-MHC binding, purified MHC/competitive/radioactivity; filed as Kd, often an IC50 or EC50 that approximates it; ≥ and ≤ were set here for values at or beyond the usual limits of such assays.
Assay [2] concerns the target HLA-A*02:17. The description is as above.
The target of assay [3] is HLA-A*02:03. Described as above.
For assay [4], the target named is HLA-B*58:01. The description is as above.
The target in assay [5] is HLA-B*57:01. Described as above.
The target in assay [6] is HLA-B*58:01. In words: IEDB peptide-MHC binding, purified MHC/direct/fluorescence; filed as Kd, often an IC50 or EC50 that approximates it; ≥ and ≤ were set here for values at or beyond the usual limits of such assays.
The target in assay [7] is HLA-B*15:17. The description is as above.
Assay [8] addresses HLA-B*57:01. The assay is described as above.
Assay [9] addresses HLA-A*02:06. In words: IEDB peptide-MHC binding, purified MHC/competitive/radioactivity; filed as Kd, often an IC50 or EC50 that approximates it; ≥ and ≤ were set here for values at or beyond the usual limits of such assays.
In assay [10] the target is HLA-A*68:02. In words: IEDB peptide-MHC binding, purified MHC/competitive/fluorescence; filed as Kd, often an IC50 or EC50 that approximates it; ≥ and ≤ were set here for values at or beyond the usual limits of such assays. The note with it: source organism: Cryptosporidium parvum Iowa II.
Assay [11] concerns the target HLA-B*48:01. In words: IEDB peptide-MHC binding, purified MHC/direct/fluorescence; filed as Kd, often an IC50 or EC50 that approximates it; ≥ and ≤ were set here for values at or beyond the usual limits of such assays.
Assay [12] addresses HLA-A*68:01. The experiment in a line: IEDB peptide-MHC binding, purified MHC/competitive/radioactivity; filed as Kd, often an IC50 or EC50 that approximates it; ≥ and ≤ were set here for values at or beyond the usual limits of such assays. The settings on record: source organism: Dengue virus 3 Martinique/1243/1999.
The target in assay [13] is HLA-A*11:01. The experiment in a line: IEDB peptide-MHC binding, purified MHC/competitive/fluorescence; ≥ and ≤ were set here for values at or beyond the usual limits of such assays. The note with it: source organism: Vaccinia virus.
Assay [14] has as its target HLA-A*30:02. The experiment in a line: IEDB peptide-MHC binding, purified MHC/competitive/radioactivity; filed as Kd, often an IC50 or EC50 that approximates it; ≥ and ≤ were set here for values at or beyond the usual limits of such assays. The note with it: source organism: Dengue virus 2 Jamaica/1409/1983.
In assay [15] the target is HLA-B*46:01. The experiment in a line: IEDB peptide-MHC binding, purified MHC/direct/fluorescence; filed as Kd, often an IC50 or EC50 that approximates it; ≥ and ≤ were set here for values at or beyond the usual limits of such assays. The note with it: source organism: Dengue virus.
In assay [16] the target is HLA-A*02:01. Described as above. The settings on record: source organism: Orthohantavirus andesense.
In assay [17] the target is HLA-A*02:12. The assay is described as above. The note with it: source organism: Orthohantavirus tulaense.
The target in assay [18] is HLA-A*02:11. The assay is described as above. The note with it: source organism: Orthohantavirus tulaense.
Assay [19] concerns the target HLA-A*02:19. The description is as above. The settings on record: source organism: Orthohantavirus tulaense.
Assay [20] deals with HLA-A*32:01. In words: IEDB peptide-MHC binding, purified MHC/competitive/radioactivity; filed as Kd, often an IC50 or EC50 that approximates it; ≥ and ≤ were set here for values at or beyond the usual limits of such assays.
The target of assay [21] is HLA-B*15:01. The description is as above. The note with it: source organism: Dengue virus 1 Singapore/S275/1990.
Assay [22] has as its target HLA-A*24:02. Described as above. The settings on record: source organism: Dengue virus 1 Singapore/S275/1990.
In assay [23] the target is HLA-B*27:05. The experiment in a line: IEDB peptide-MHC binding, purified MHC/direct/fluorescence; filed as Kd, often an IC50 or EC50 that approximates it; ≥ and ≤ were set here for values at or beyond the usual limits of such assays. The settings on record: source organism: Francisella tularensis subsp. holarctica LVS.
Setting [24] is: source organism: Dengue virus 2 Jamaica/1409/1983.
[25] abbreviates: source organism: Dengue virus 4 Dominica/814669/1981.
[26] abbreviates: source organism: Marburg virus - Musoke, Kenya, 1980.
The mark [27] stands for this setting: source organism: Dengue virus 4 Philippines/H241/1956.
[28] abbreviates: source organism: Dengue virus 1 Singapore/S275/1990.
[29] abbreviates: source organism: Dengue virus 1 Brazil/97-11/1997.
[30] abbreviates: source organism: West Nile virus.
Where [31] appears, read: source organism: Dengue virus 3 Martinique/1243/1999.
Where [32] appears, read: source organism: Camelpox virus M-96.

One may read the Kd as the free concentration of one partner at which half of the binding sites on the other are occupied at equilibrium, for simple one-to-one binding. Turning to ALLLLVAHYA, the results for the Kd in assay [1] (setting [24]) and in assay [2] (setting [24]) were 1330 nM and not below 70400 nM, respectively.
Regarding ALSEGVYRI, the figures for the Kd in assay [1] (setting [25]), in [2] (setting [25]) and in assay [3] (setting [25]) were 2.88 nM, 172 nM and 17.3 nM, respectively.
As for ASGKLITEW, the Kd in [4] (setting [24]) was 13.5 nM; in [5] (setting [24]) it was 4.7 nM.
ATAVNQECW: the Kd in assay [6] (setting [26]) came to 51.6 nM; in assay [7] (setting [26]), 4.1 nM; in assay [8] (setting [26]), 122 nM.
As for ATGPISTLW, the Kd in assay [4] (setting [24]) came to 1.49 nM; in [5] (setting [24]), 1.42 nM.
For ATGPVLTLW, the Kd in assay [4] (setting [27]) is 0.422 nM; in assay [5] (setting [27]), 2.48 nM.
In the case of FASALTALND, the Kd in assay [4] (setting [24]) worked out at 1570 nM; in assay [5] (setting [24]) it was 636 nM.
With FLDLPLPWA, the Kd in assay [1] (setting [27]) amounted to 10.4 nM; in [2] (setting [27]), 108 nM.
For the sequence FMNEDHWFS, the Kd worked out at 9.76 nM in assay [1] (setting [28]), 270 nM in [9] (setting [29]) and 244 nM in [2] (setting [28]).
Take FTAYYLILA: the Kd in assay [10] worked out at 9.7 nM.
GQWGGDWAV: the Kd in assay [11] (source organism: Brucella abortus 2308) was determined as 61.4 nM.
Sequence GRMEKKTWK returned a Kd in assay [11] (setting [30]) not below 20000 nM.
Consider GTSGSPIINR, for which the figures for the Kd in [12] and in assay [5] (setting [31]) were 13.8 nM and 4000 nM, respectively.
Take GTSGSPIVDR: in assay [5] (setting [24]), the Kd worked out at 2340 nM.
Consider ISGSNIVIF, for which the Kd in assay [6] (setting [32]) was 904 nM; in [7] (setting [32]), 155 nM; in assay [8] (setting [32]) it was not below 20000 nM.
Usually IC50 stands for the concentration that gives 50% inhibition. The low end stands for greater potency in that assay, the high end for weaker potency in that assay. In turn, KGVEYNIDK yielded an IC50 in assay [13] of 31600 nM.
For the sequence KLFMALVAFL, the results for the Kd in assay [1] (setting [24]), in assay [2] (setting [24]) and in assay [3] (setting [24]) were 46.6 nM, 51.8 nM and 3.35 nM, respectively.
As for KLQLKGMSY, the Kd in assay [14] is 131 nM; in assay [15] it was not below 20000 nM.
As to KLYEGDLRV, the Kd in assay [16] is not above 1 nM; in [17] it was 5 nM; in assay [18], not above 1 nM; in assay [19], 8 nM.
On to KPYMAMSAL, for which the Kd in assay [11] (source organism: Salmonella enterica subsp. enterica serovar Typhimurium) came to 541 nM.
KQIQKVETW: the Kd in assay [20] (setting [29]) worked out at 49.5 nM; in assay [4] (setting [29]), 4.77 nM; in assay [5] (setting [29]), 460 nM.
Turning to KQIQRVETW, the Kd in [20] (setting [28]) came out at 21.1 nM; in [4] (setting [28]) it was 10.8 nM; in [5] (setting [28]) it was 44.1 nM; in assay [21], 67.8 nM; in assay [22] it was 8580 nM.
Turning to KQLGQVMLLV, the values for the Kd in assay [1] (setting [27]), in [9] (setting [31]) and in [2] (setting [27]) were 20.2 nM, 5.78 nM and 172 nM, respectively.
In the case of KRLSVNQKY, the Kd was not below 20000 nM in assay [11] (source organism: Francisella tularensis subsp. holarctica LVS) and 62.2 nM in [23].
For KSFLVHREW, the Kd in assay [7] (setting [30]) was found to be 5.7 nM.
LASSLLKNDI: the Kd in assay [4] (setting [24]) turned out to be 717 nM; in assay [5] (setting [24]), 1280 nM.
